# Changes are numbered by the printed parent chain.
# B1: chimeric IgG clone 1A5 (antibody, V domains shown)
# VH: EVQLQQSGAELVRPGASVKLSCTASGFNIKDSLIHWVKQRPEQGLEWIGWIDPEDGETKYAPKFQDKATKTADTSSNTAYLQLSSLTSEDTAIYYCASGEWDYWGQGTSVTVSS
# VL: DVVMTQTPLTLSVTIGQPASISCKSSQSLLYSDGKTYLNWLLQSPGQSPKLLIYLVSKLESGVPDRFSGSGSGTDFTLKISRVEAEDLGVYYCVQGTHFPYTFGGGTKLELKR
# notes: mouse-human chimeric IgG from HEK293
# B2: chimeric IgG clone 1A1 (antibody, V domains shown)
# VH: EVQLQQSGAELVRPGASVRLSCTASGFNIKDSLMHWLKQRPEQGLEWIGWIDPEDGETKYAPKFQDKATITADTSSNTAYLQLSSLTSEDTAIYYCTRRDWEGPWGQGTLVTVSA
# VL: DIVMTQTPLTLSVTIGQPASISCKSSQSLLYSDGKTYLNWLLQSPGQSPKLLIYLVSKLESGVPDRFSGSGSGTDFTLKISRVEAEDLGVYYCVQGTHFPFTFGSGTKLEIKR
# notes: mouse-human chimeric IgG from HEK293; also called anti-Tau 1A1; anti-Tau^1A1
# B3: chimeric IgG clone 1G7 (antibody, V domains shown)
# VH: B2 VH with L11V, R19K, A24T, E89G, T97A
# VL: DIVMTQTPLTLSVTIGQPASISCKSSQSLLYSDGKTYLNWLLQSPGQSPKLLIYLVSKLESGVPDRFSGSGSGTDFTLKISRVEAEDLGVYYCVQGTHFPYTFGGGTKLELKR
# notes: as for B1
# Columns and labels:
# Assay in all cases: peptide array
# [1] = target: T1, Peptide_043 (human)
# T1 peptide: RTPSLPTPPTREPKK
# Outline: (§1)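 Overlapping 15-mer peptides (5-aa offset) spanning human 2N4R Tau spotted in triplicate on slides; antibodies bound 2 h at room temperature in 3% BSA-TBST (chimeric IgG 5 μg/mL; mouse IgG 30 μg/mL). Detection 1 h with fluorescent anti-human (568 nm) or anti-mouse (647 nm) secondary; fluorescence imaging aligned to array map.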
# [2] = target: T2, Peptide_065 (human)
# T2 peptide: KCGSLGNIHHKPGGG
# Outline: as §1
# [3] = target: T3, Peptide_070 (human)
# T3 peptide: FKDRVQSKIGSLDNI
# Outline: as §1
# [4] = target: T4, Peptide_060 (human)
# T4 peptide: NIKHVPGGGSVQIVY
# Outline: as §1
# [5] = target: T5, Peptide_085 (human)
# T5 peptide: DSPQLATLADEVSAS
# Outline: as §1
# [6] = target: T6, Peptide_083 (human)
# T6 peptide: VSSTGSIDMVDSPQL
# Outline: as §1
# [7] = target: T7, Peptide_047 (human)
# T7 peptide: TPPKSPSSAKSRLQT
# Outline: as §1
# [8] = target: T8, Peptide_021 (human)
# T8 peptide: TTAEEAGIGDTPSLE
# Outline: as §1
# [9] = target: T9, Peptide_048 (human)
# T9 peptide: PSSAKSRLQTAPVPM
# Outline: as §1
# [10] = target: T10, Peptide_049 (human)
# T10 peptide: SRLQTAPVPMPDLKN
# Outline: as §1
# [11] = target: T11, Peptide_005 (human)
# T11 peptide: GDRKDQGGYTMHQDQ
# Outline: as §1
# [12] = target: T12, Peptide_037 (human)
# T12 peptide: TPPSSGEPPKSGDRS
# Outline: as §1
# [13] = target: T13, Peptide_044 (human)
# T13 peptide: PTPPTREPKKVAVVR
# Outline: as §1
# [14] = target: T14, Peptide_035 (human)
# T14 peptide: IPAKTPPAPKTPPSS
# Outline: as §1
# [15] = target: T15, Peptide_006 (human)
# T15 peptide: QGGYTMHQDQEGDTD
# Outline: as §1
# [16] = target: T16, Peptide_068 (human)
# T16 peptide: QVEVKSEKLDFKDRV
# Outline: as §1
# [17] = target: T17, Peptide_039 (human)
# T17 peptide: SGDRSGYSSPGSPGT
# Outline: as §1
# [18] = target: T18, Peptide_018 (human)
# T18 peptide: GKQAAAQPHTEIPEG
# Outline: as §1
# [19] = target: T19, Peptide_066 (human)
# T19 peptide: GNIHHKPGGGQVEVK
# Outline: as §1
# [20] = target: T20, Peptide_040 (human)
# T20 peptide: GYSSPGSPGTPGSRS
# Outline: as §1
# [21] = target: T21, Peptide_074 (human)
# T21 peptide: GGNKKIETHKLTFRE
# Outline: as §1
# [22] = target: T22, Peptide_014 (human)
# T22 peptide: AKSTPTAEDVTAPLV
# Outline: as §1
# [23] = target: T23, Peptide_076 (human)
# T23 peptide: LTFRENAKAKTDHGA
# Outline: as §1
# [24] = target: T24, Peptide_029 (human)
# T24 peptide: KAKGADGKTKIATPR
# Outline: as §1
# [25] = target: T25, Peptide_081 (human)
# T25 peptide: GDTSPRHLSNVSSTG
# Outline: as §1
# [26] = target: T26, Peptide_012 (human)
# T26 peptide: SEEPGSETSDAKSTP
# Outline: as §1
# [27] = target: T27, Peptide_004 (human)
# T27 peptide: GTYGLGDRKDQGGYT
# Outline: as §1
# [28] = target: T28, Peptide_033 (human)
# T28 peptide: GQKGQANATRIPAKT
# Outline: as §1
# [29] = target: T29, Peptide_028 (human)
# T29 peptide: GSDDKKAKGADGKTK
# Outline: as §1
# [30] = target: T30, Peptide_067 (human)
# T30 peptide: KPGGGQVEVKSEKLD
# Outline: as §1
# [31] = target: T31, Peptide_027 (human)
# T31 peptide: SKDGTGSDDKKAKGA
# Outline: as §1
# [32] = target: T32, Peptide_073 (human)
# T32 peptide: THVPGGGNKKIETHK
# Outline: as §1
# [33] = target: T33, Peptide_011 (human)
# T33 peptide: PTEDGSEEPGSETSD
# Outline: as §1
# [34] = target: T34, Peptide_045 (human)
# T34 peptide: REPKKVAVVRTPPKS
# Outline: as §1
Binder,binding result [1],binding result [2],binding result [3],binding result [4],binding result [5],binding result [6],binding result [7],binding result [8],binding result [9],binding result [10],binding result [11],binding result [12],binding result [13],binding result [14],binding result [15],binding result [16],binding result [17],binding result [18],binding result [19],binding result [20],further results
B1,no binding (tested: 5 ug/mL),no binding (tested: 5 ug/mL),binds,no binding (tested: 5 ug/mL),no binding (tested: 5 ug/mL),no binding (tested: 5 ug/mL),no binding (tested: 5 ug/mL),no binding (tested: 5 ug/mL),no binding (tested: 5 ug/mL),no binding (tested: 5 ug/mL),no binding (tested: 5 ug/mL),no binding (tested: 5 ug/mL),no binding (tested: 5 ug/mL),no binding (tested: 5 ug/mL),no binding (tested: 5 ug/mL),no binding (tested: 5 ug/mL),no binding (tested: 5 ug/mL),no binding (tested: 5 ug/mL),no binding (tested: 5 ug/mL),no binding (tested: 5 ug/mL),binding result [21]: no binding (tested: 5 ug/mL); binding result [22]: no binding (tested: 5 ug/mL); binding result [23]: no binding (tested: 5 ug/mL); binding result [24]: no binding (tested: 5 ug/mL); binding result [25]: no binding (tested: 5 ug/mL); binding result [26]: no binding (tested: 5 ug/mL); binding result [27]: no binding (tested: 5 ug/mL); binding result [28]: no binding (tested: 5 ug/mL); binding result [29]: no binding (tested: 5 ug/mL); binding result [30]: no binding (tested: 5 ug/mL); binding result [31]: no binding (tested: 5 ug/mL); binding result [32]: no binding (tested: 5 ug/mL); binding result [33]: no binding (tested: 5 ug/mL); binding result [34]: no binding (tested: 5 ug/mL)
B2,no binding (tested: 5 ug/mL),no binding (tested: 5 ug/mL),binds,no binding (tested: 5 ug/mL),no binding (tested: 5 ug/mL),no binding (tested: 5 ug/mL),no binding (tested: 5 ug/mL),no binding (tested: 5 ug/mL),no binding (tested: 5 ug/mL),no binding (tested: 5 ug/mL),no binding (tested: 5 ug/mL),no binding (tested: 5 ug/mL),no binding (tested: 5 ug/mL),no binding (tested: 5 ug/mL),no binding (tested: 5 ug/mL),no binding (tested: 5 ug/mL),no binding (tested: 5 ug/mL),no binding (tested: 5 ug/mL),no binding (tested: 5 ug/mL),no binding (tested: 5 ug/mL),binding result [21]: no binding (tested: 5 ug/mL); binding result [22]: no binding (tested: 5 ug/mL); binding result [23]: no binding (tested: 5 ug/mL); binding result [24]: no binding (tested: 5 ug/mL); binding result [25]: no binding (tested: 5 ug/mL); binding result [26]: no binding (tested: 5 ug/mL); binding result [27]: no binding (tested: 5 ug/mL); binding result [28]: no binding (tested: 5 ug/mL); binding result [29]: no binding (tested: 5 ug/mL); binding result [30]: no binding (tested: 5 ug/mL); binding result [31]: no binding (tested: 5 ug/mL); binding result [32]: no binding (tested: 5 ug/mL); binding result [33]: no binding (tested: 5 ug/mL); binding result [34]: no binding (tested: 5 ug/mL)
B3,no binding (tested: 5 ug/mL),no binding (tested: 5 ug/mL),binds,no binding (tested: 5 ug/mL),no binding (tested: 5 ug/mL),no binding (tested: 5 ug/mL),no binding (tested: 5 ug/mL),no binding (tested: 5 ug/mL),no binding (tested: 5 ug/mL),no binding (tested: 5 ug/mL),no binding (tested: 5 ug/mL),no binding (tested: 5 ug/mL),no binding (tested: 5 ug/mL),no binding (tested: 5 ug/mL),no binding (tested: 5 ug/mL),no binding (tested: 5 ug/mL),no binding (tested: 5 ug/mL),no binding (tested: 5 ug/mL),no binding (tested: 5 ug/mL),no binding (tested: 5 ug/mL),binding result [21]: no binding (tested: 5 ug/mL); binding result [22]: no binding (tested: 5 ug/mL); binding result [23]: no binding (tested: 5 ug/mL); binding result [24]: no binding (tested: 5 ug/mL); binding result [25]: no binding (tested: 5 ug/mL); binding result [26]: no binding (tested: 5 ug/mL); binding result [27]: no binding (tested: 5 ug/mL); binding result [28]: no binding (tested: 5 ug/mL); binding result [29]: no binding (tested: 5 ug/mL); binding result [30]: no binding (tested: 5 ug/mL); binding result [31]: no binding (tested: 5 ug/mL); binding result [32]: no binding (tested: 5 ug/mL); binding result [33]: no binding (tested: 5 ug/mL); binding result [34]: no binding (tested: 5 ug/mL)

# Source: patent US20200216522A1 (DENALI THERAPEUTICS, published 2020)
